Source: patent US20220323445A1, “REDUCING IMMUNOGENICITY TO PEGLOTICASE” (Horizon Therapeutics Ireland DAC, priority 2020, published 2022)

How the values were obtained:
plasma urate = details: doses of 4 to 12 mg; within 24 to 72 hours; from 11.1±0.6 mg/dL; cited from earlier work
[1] = test system: patients with uncontrolled gout; assay: Health Assessment Questionnaire (HAQ-DI, HAQ pain, HAQ health), open-label study; type: in vivo, human; design: key to HAQ-Health, Observed, Median / HAQ-Health, Change from Baseline, Median: 0-100 scale; 0 = very well, 100 = very poor health; key to HAQ-DI, Observed, Median / HAQ-DI, Change from Baseline, Median: HAQ-DI scale 0-3; 0 = no difficulty, 3 = unable to do; details: mITT
Protocol: Quality-of-Life Assessment: The HAQ was administered at the Screening and Week −4 or week −6 (prior to the first dose of MTX) Visits during the MTX Run-in Period for the open-label and randomized studies, respectively; prior to pegloticase infusion at the Day 1 and Weeks 14, 24 and 36 Visits or at the Day 1 and weeks 6, 14, 20, 24, 30, 36, and 44 visits during the Pegloticase+IMM Period for the open-label and randomized studies, respectively; at the End of Pegloticase Infusions Visit (if applicable), the Week 52/End of Study/Early Termination Visit and the Post Treatment Periods 3 and 6 Month Follow-up Visits (open-label study). The HAQ-DI is a self-report functional status instrument that can be filled out by a subject in less than 5 minutes and requires 1 minute to score. The index measures disability over the past week by asking a total of 20 questions covering 8 domains of function: dressing and grooming, arising, eating, walking, hygiene, reach, grip, and usual activities. There are at least 2 questions in each domain and the 8 domains represent a comprehensive set of functional activities. The HAQ-DI is calculated by scoring the answer to each question in the HAQ from 0 to 3, with 0 representing the ability to do without any difficulty, and 3 representing inability to do. Any activity that requires assistance from another individual or requires the use of an assistive device raises a 0 or 1 score to a 2. The highest score for each of the 8 domains is summed (range from 0 to 24) and divided by 8 to yield, on a scale with 25 possible values, a Functional Disability Index with a range from 0 to 3. The disability index is based on the number of domains answered and is computed only if the subject completes answers to at least 6 domains. The HAQ pain scale asks subjects to record how much pain they have had in the past week on a scale of 0 to 100, where zero represents “no pain” and 100 represents “severe pain”. The HAQ health scale is a measure of overall health. Subjects are asked to rate how well they are doing on a score of 0 to 100, where zero represents “very well” and 100 represents “very poor” health.

[2] = Day 1 vs Methotrexate Baseline, n=13
[3] = Early Termination Visit vs Methotrexate Baseline, n=3
[4] = Early Termination Visit vs Pegloticase Baseline, n=3
[5] = End of Pegloticase Infusions Visit vs Methotrexate Baseline, n=2
[6] = End of Pegloticase Infusions Visit vs Pegloticase Baseline, n=2
[7] = End of Pegloticase Infusions Visit, n=2
[8] = Week 14 vs Methotrexate Baseline, n=14
[9] = Week 14 vs Pegloticase Baseline, n=14
[10] = Week 24 vs Methotrexate Baseline, n=11
[11] = Week 24 vs Pegloticase Baseline, n=11
[12] = Week 36 vs Methotrexate Baseline, n=9
[13] = Week 36 vs Pegloticase Baseline, n=9
[14] = Week 52/ET vs Methotrexate Baseline, n=3
[15] = Week 52/ET vs Pegloticase Baseline, n=3

B1: pegloticase (protein)
chain: TYKKNDEVEFVRTGYGKDMIKVLHIQRDGKYHSIKEVATTVQLTLSSKKDYLHGDNSDVIPTDTIKNTVNVLAKFKGIKSIETFAVTICEHFLSSFKHVIRAQVYVEEVPWKRFEKNGVKHVHAFIYTPTGTHFCEVEQIRNGPPVIHSGIKDLKVLKTTQSGFEGFIKDQFTTLPEVKDRCFATQVYCKWRYHQGRDVDFEATWDTVRSIVLQKFAGPYDKGEYSPSVQKTLYDIQVLTLGQVPEIEDMEISLPNIHYLNIDMSKMGLINKEEVLLPLDNPYGKITGTVKRKLSSRL
modifications: monomethoxy PEG conjugated; Krystexxa Sequence
notes: covalent conjugate of uricase produced by a genetically modified strain of Escherichia coli and monomethoxypoly (ethylene glycol)
plasma urate concentration (pUAc) after dosing, mean±SD (plasma urate): 1.0±0.5 mg/dL
HAQ-DI, Observed, Mean (SD) ([1]; Day 1, n=13): 0.8 (0.77)
HAQ-DI, Observed, Median ([1]; Day 1, n=13): 0.5
HAQ-Health, Observed, Mean (SD) ([1]; Day 1, n=13): 37.8 (27.06)
HAQ-Health, Observed, Median ([1]; Day 1, n=13): 25.0
HAQ-Pain, Observed, Mean (SD) ([1]; Day 1, n=13): 42.5 (22.24)
HAQ-Pain, Observed, Median ([1]; Day 1, n=13): 40.0
HAQ-DI, Change from Baseline, Mean (SD) [1, 2]: 0.1 (0.27)
HAQ-DI, Change from Baseline, Median [1, 2]: 0.0
HAQ-Health, Change from Baseline, Mean (SD) [1, 2]: −8.8 (38.29)
HAQ-Health, Change from Baseline, Median [1, 2]: 10.0
HAQ-Pain, Change from Baseline, Mean (SD) [1, 2]: 2.3 (19.93)
HAQ-Pain, Change from Baseline, Median [1, 2]: 0.0
HAQ-DI, Change from Baseline, Mean (SD) [1, 3]: 0.2 (0.90)
HAQ-DI, Change from Baseline, Median [1, 3]: −0.3
HAQ-Health, Change from Baseline, Mean (SD) [1, 3]: −0.7 (16.77)
HAQ-Health, Change from Baseline, Median [1, 3]: 8.0
HAQ-Pain, Change from Baseline, Mean (SD) [1, 3]: 19.0 (36.51)
HAQ-Pain, Change from Baseline, Median [1, 3]: 7.0
HAQ-DI, Change from Baseline, Mean (SD) [1, 4]: 0.2 (0.56)
HAQ-DI, Change from Baseline, Median [1, 4]: 0.1
HAQ-Health, Change from Baseline, Mean (SD) [1, 4]: −11.7 (62.52)
HAQ-Health, Change from Baseline, Median [1, 4]: −10.0
HAQ-Pain, Change from Baseline, Mean (SD) [1, 4]: 0.0 (45.83)
HAQ-Pain, Change from Baseline, Median [1, 4]: −10.0
HAQ-DI, Observed, Mean (SD) ([1]; Early Termination Visit, n=3): 0.7 (0.51)
HAQ-DI, Observed, Median ([1]; Early Termination Visit, n=3): 0.6
HAQ-Health, Observed, Mean (SD) ([1]; Early Termination Visit, n=3): 28.3 (40.72)
HAQ-Health, Observed, Median ([1]; Early Termination Visit, n=3): 10.0
HAQ-Pain, Observed, Mean (SD) ([1]; Early Termination Visit, n=3): 46.7 (40.41)
HAQ-Pain, Observed, Median ([1]; Early Termination Visit, n=3): 40.0
HAQ-DI, Change from Baseline, Mean (SD) [1, 5]: −0.1 (0.35)
HAQ-DI, Change from Baseline, Median [1, 5]: −0.1
HAQ-Health, Change from Baseline, Mean (SD) [1, 5]: −80.0 (0.00)
HAQ-Health, Change from Baseline, Median [1, 5]: −80.0
HAQ-Pain, Change from Baseline, Mean (SD) [1, 5]: 2.5 (74.25)
HAQ-Pain, Change from Baseline, Median [1, 5]: 2.5
HAQ-DI, Change from Baseline, Mean (SD) [1, 6]: −0.1 (0.35)
HAQ-DI, Change from Baseline, Median [1, 6]: −0.1
HAQ-Health, Change from Baseline, Mean (SD) [1, 6]: −45.0 (49.50)
HAQ-Health, Change from Baseline, Median [1, 6]: −45.0
HAQ-Pain, Change from Baseline, Mean (SD) [1, 6]: 2.5 (74.25)
HAQ-Pain, Change from Baseline, Median [1, 6]: 2.5
HAQ-DI, Observed, Mean (SD) [1, 7]: 0.1 (0.18)
HAQ-DI, Observed, Median [1, 7]: 0.1
HAQ-Health, Observed, Mean (SD) [1, 7]: 0.0 (0.00)
HAQ-Health, Observed, Median [1, 7]: 0.0
HAQ-Pain, Observed, Mean (SD) [1, 7]: 40.0 (56.57)
HAQ-Pain, Observed, Median [1, 7]: 40.0
HAQ-DI, Observed, Mean (SD) ([1]; Week 14, n=14): 0.5 (0.41)
HAQ-DI, Observed, Median ([1]; Week 14, n=14): 0.5
HAQ-Health, Observed, Mean (SD) ([1]; Week 14, n=14): 36.6 (33.87)
HAQ-Health, Observed, Median ([1]; Week 14, n=14): 16.5
HAQ-Pain, Observed, Mean (SD) ([1]; Week 14, n=14): 27.1 (26.25)
HAQ-Pain, Observed, Median ([1]; Week 14, n=14): 15.0
HAQ-DI, Change from Baseline, Mean (SD) [1, 8]: −0.2 (0.77)
HAQ-DI, Change from Baseline, Median [1, 8]: 0.0
HAQ-Health, Change from Baseline, Mean (SD) [1, 8]: −12.5 (36.79)
HAQ-Health, Change from Baseline, Median [1, 8]: −5.0
HAQ-Pain, Change from Baseline, Mean (SD) [1, 8]: −13.9 (30.48)
HAQ-Pain, Change from Baseline, Median [1, 8]: −12.5
HAQ-DI, Change from Baseline, Mean (SD) [1, 9]: −0.3 (0.80)
HAQ-DI, Change from Baseline, Median [1, 9]: 0.0
HAQ-Health, Change from Baseline, Mean (SD) [1, 9]: −4.3 (43.82)
HAQ-Health, Change from Baseline, Median [1, 9]: −1.0
HAQ-Pain, Change from Baseline, Mean (SD) [1, 9]: −16.0 (30.65)
HAQ-Pain, Change from Baseline, Median [1, 9]: −12.5
HAQ-DI, Observed, Mean (SD) ([1]; Week 24, n=11): 0.2 (0.33)
HAQ-DI, Observed, Median ([1]; Week 24, n=11): 0.1
HAQ-Health, Observed, Mean (SD) ([1]; Week 24, n=11): 21.4 (26.65)
HAQ-Health, Observed, Median ([1]; Week 24, n=11): 10.0
HAQ-Pain, Observed, Mean (SD) ([1]; Week 24, n=11): 25.4 (27.50)
HAQ-Pain, Observed, Median ([1]; Week 24, n=11): 20.0
HAQ-DI, Change from Baseline, Mean (SD) [1, 10]: −0.5 (0.74)
HAQ-DI, Change from Baseline, Median [1, 10]: −0.1
HAQ-Health, Change from Baseline, Mean (SD) [1, 10]: −33.2 (36.01)
HAQ-Health, Change from Baseline, Median [1, 10]: −40.0
HAQ-Pain, Change from Baseline, Mean (SD) [1, 10]: −19.2 (35.13)
HAQ-Pain, Change from Baseline, Median [1, 10]: −10.0
HAQ-DI, Change from Baseline, Mean (SD) [1, 11]: −0.6 (0.85)
HAQ-DI, Change from Baseline, Median [1, 11]: −0.1
HAQ-Health, Change from Baseline, Mean (SD) [1, 11]: −19.7 (43.38)
HAQ-Health, Change from Baseline, Median [1, 11]: −10.0
HAQ-Pain, Change from Baseline, Mean (SD) [1, 11]: −16.7 (38.53)
HAQ-Pain, Change from Baseline, Median [1, 11]: −10.0
HAQ-DI, Observed, Mean (SD) ([1]; Week 36, n=9): 0.3 (0.49)
HAQ-DI, Observed, Median ([1]; Week 36, n=9): 0.1
HAQ-Health, Observed, Mean (SD) ([1]; Week 36, n=9): 27.3 (35.18)
HAQ-Health, Observed, Median ([1]; Week 36, n=9): 10.0
HAQ-Pain, Observed, Mean (SD) ([1]; Week 36, n=9): 21.0 (27.60)
HAQ-Pain, Observed, Median ([1]; Week 36, n=9): 10.0
HAQ-DI, Change from Baseline, Mean (SD) [1, 12]: −0.5 (0.80)
HAQ-DI, Change from Baseline, Median [1, 12]: 0.0
HAQ-Health, Change from Baseline, Mean (SD) [1, 12]: −27.7 (42.59)
HAQ-Health, Change from Baseline, Median [1, 12]: −10.0
HAQ-Pain, Change from Baseline, Mean (SD) [1, 12]: −22.9 (28.41)
HAQ-Pain, Change from Baseline, Median [1, 12]: −20.0
HAQ-DI, Change from Baseline, Mean (SD) [1, 13]: −0.5 (0.86)
HAQ-DI, Change from Baseline, Median [1, 13]: −0.1
HAQ-Health, Change from Baseline, Mean (SD) [1, 13]: −16.2 (50.72)
HAQ-Health, Change from Baseline, Median [1, 13]: −10.0
HAQ-Pain, Change from Baseline, Mean (SD) [1, 13]: −19.9 (20.25)
HAQ-Pain, Change from Baseline, Median [1, 13]: −20.0
HAQ-DI, Change from Baseline, Mean (SD) [1, 14]: −0.6 (0.87)
HAQ-DI, Change from Baseline, Median [1, 14]: −0.1
HAQ-Health, Change from Baseline, Mean (SD) [1, 14]: −16.7 (59.23)
HAQ-Health, Change from Baseline, Median [1, 14]: 15.0
HAQ-Pain, Change from Baseline, Mean (SD) [1, 14]: −42.7 (18.04)
HAQ-Pain, Change from Baseline, Median [1, 14]: −44.0
HAQ-DI, Change from Baseline, Mean (SD) [1, 15]: −0.8 (1.08)
HAQ-DI, Change from Baseline, Median [1, 15]: −0.1
HAQ-Health, Change from Baseline, Mean (SD) [1, 15]: 23.3 (54.85)
HAQ-Health, Change from Baseline, Median [1, 15]: 5.0
HAQ-Pain, Change from Baseline, Mean (SD) [1, 15]: −41.0 (25.24)
HAQ-Pain, Change from Baseline, Median [1, 15]: −29.0
HAQ-DI, Observed, Mean (SD) ([1]; Week 52/ET, n=3): 0.4 (0.29)
HAQ-DI, Observed, Median ([1]; Week 52/ET, n=3): 0.3
HAQ-Health, Observed, Mean (SD) ([1]; Week 52/ET, n=3): 60.0 (48.22)
HAQ-Health, Observed, Median ([1]; Week 52/ET, n=3): 80.0
HAQ-Pain, Observed, Mean (SD) ([1]; Week 52/ET, n=3): 4.0 (5.20)
HAQ-Pain, Observed, Median ([1]; Week 52/ET, n=3): 1.0
